According to the supplement of paper PMC10126150:
± gives the standard deviation of the averaged measurements.

System: ATP
Test: switch fluorescence ratio, 500 uM ATP over buffer (Cy3 cluster intensity, sum of 5 cycles each) (fold (ratio)); higher = stronger signal-on switching upon ATP binding; sequences stand for … in TCGTCGGCAGCGTCAGATGTGTATAAGAGACAGTTTTTTTTTTTTTTTTTTTTTTTTT…TC
Conditions: aptamer strand: ATP DNA aptamer (quencher-CACCTGGGGGAGTATTGCGGAGGAAGG + anchor), 100 nM annealed; ATP concentration: 500 uM
Procedure, shortened: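 Exposure to 500 uM ATP lasted 15 min at 22 °C before imaging, and a selection-buffer image was taken beforehand, for Cy3-labelled switching-strand clusters on a modified Illumina MiSeq flow-cell annealed to 100 nM quencher-labelled ATP aptamer. Five buffer/ATP cycles were run with NaOH stripping and re-annealing between them. The fluorescence ratio per cluster is summed target-cycle over summed buffer-cycle Cy3 intensity, averaged per switch-domain sequence. Clusters outside 100-1000 RFU were excluded.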

Row | Sequence | switch fluorescence ratio
1 | CGATATTGAT | 1.03 ± 0.035
2 | CGATCCCGGG | 1.07 ± 0.11
3 | CGATCCGTCC | 1.09 ± 0.032
4 | CGATCGATAT | 0.998 ± 0.032
5 | CGATCGGATT | 1.01 ± 0.017
6 | CGATCGGTAC | 3.3 ± 0.38
7 | CGATCGTAAT | 2.1 ± 0.036
8 | CGATCTTGTT | 0.982 ± 0.018
9 | CGATGAAAGG | 0.966 ± 0.023
10 | CGATGCTAGT | 1.07 ± 0.037
11 | CGATGGAGGA | 0.98967 ± 0.00091
12 | CGATGGCCCT | 1.03 ± 0.011
13 | CGATGGGGGG | 0.982 ± 0.06
14 | CGATGGTAAG | 0.972 ± 0.011
15 | CGATGGTCTG | 0.9872 ± 0.0018
16 | CGATGTCGAA | 1.01 ± 0.011
17 | CGATGTCGCG | 0.989 ± 0.028
18 | CGATGTTATG | 1.02 ± 0.022
19 | CGATTAAAAT | 0.986 ± 0.021
20 | CGATTAAATG | 0.993 ± 0.013
21 | CGATTAAGGT | 1.02 ± 0.043
22 | CGATTATGGT | 1.003 ± 0.0094
23 | CGATTATTTG | 0.9786 ± 0.0053
24 | CGATTCAAGG | 1.03 ± 0.017
25 | CGATTCGGTG | 0.9698 ± 0.0031

Row | Sequence | switch fluorescence ratio
26 | CGATTCTGCT | 0.996 ± 0.036
27 | CGATTGATGT | 1.02 ± 0.016
28 | CGATTGGTAC | 1.25 ± 0.023
29 | CGATTTGCTT | 0.969 ± 0.058
30 | CGATTTTGTA | 1.01 ± 0.051
31 | CGATTTTGTT | 0.989 ± 0.034
32 | CGCACTTGGG | 0.99283 ± 0.0007
33 | CGCAGCTATT | 3.56 ± 2.1
34 | CGCAGGCTTG | 1.04 ± 0.043
35 | CGCAGGGGGA | 1.033 ± 0.008
36 | CGCAGGGGGC | 1.14 ± 0.059
37 | CGCATAGGCT | 1.11 ± 0.18
38 | CGCATGATGT | 1.03 ± 0.018
39 | CGCATGGGGT | 1.0574 ± 1.7e-05
40 | CGCATTCGTG | 1.08 ± 0.029
41 | CGCATTCTAA | 1.31 ± 0.019
42 | CGCATTCTGC | 1.17 ± 0.091
43 | CGCCCGTAGG | 1.05 ± 0.011
44 | CGCCTCATGA | 1.04 ± 0.029
45 | CGCCTTGGGG | 1 ± 0.05
46 | CGCCTTGTTC | 1.01 ± 0.012
47 | CGCGAAAGCC | 1.002 ± 0.01
48 | CGCGAAGAAC | 1.039 ± 0.0088
49 | CGCGAGGGGC | 1.07 ± 0.012
50 | CGCGATCGCG | 0.994 ± 0.055

Row | Sequence | switch fluorescence ratio
51 | CGCGCCCCTT | 1.13 ± 0.015
52 | CGCGCGATTA | 1.02 ± 0.036
53 | CGCGGATTCT | 1.04 ± 0.021
54 | CGCGGCTATT | 1.07 ± 0.034
55 | CGCGGCTGGG | 1 ± 0.026
56 | CGCGGCTTGG | 1.01 ± 0.018
57 | CGCGGGGCAC | 1.062 ± 0.0025
58 | CGCGGGGTAC | 1.66 ± 0.26
59 | CGCGGTAGTC | 1.1 ± 0.046
60 | CGCGGTTTGT | 0.988 ± 0.017
61 | CGCGTCAGCC | 0.979 ± 0.073
62 | CGCGTCGCTG | 0.9811 ± 0.0012
63 | CGCGTGTCTG | 1.022 ± 0.0039
64 | CGCGTTGTGC | 1.11 ± 0.021
65 | CGCGTTTTTT | 1.07 ± 0.12
66 | CGCTAATCAG | 1.05 ± 0.043
67 | CGCTAATGCG | 1.04 ± 0.059
68 | CGCTACGGAG | 1.02 ± 0.029
69 | CGCTATAAGG | 1.03 ± 0.017
70 | CGCTATGGGG | 1.02 ± 0.059
71 | CGCTATGTGG | 1.02 ± 0.041
72 | CGCTATTGTT | 1.028 ± 0.0065
73 | CGCTATTTTA | 1.04 ± 0.039
74 | CGCTCAGGAC | 1.29 ± 0.1
75 | CGCTCTTGTA | 0.991 ± 0.012

Row | Sequence | switch fluorescence ratio
76 | CGCTGATTTG | 1.002 ± 0.0074
77 | CGCTGCGGTT | 1.01 ± 0.05
78 | CGCTGGACGG | 1.023 ± 0.0098
79 | CGCTGGATAG | 1.08 ± 0.051
80 | CGCTGGGGAT | 1.04 ± 0.027
81 | CGCTGGGTCA | 1.04 ± 0.13
82 | CGCTGGGTTT | 0.976 ± 0.035
83 | CGCTGTGCGG | 0.99 ± 0.052
84 | CGCTGTTGGT | 0.9997 ± 0.0098
85 | CGCTTAAGAG | 1.02 ± 0.014
86 | CGCTTAATTG | 1.01 ± 0.051
87 | CGCTTATGGA | 1.003 ± 0.0032
88 | CGCTTGACTT | 0.985 ± 0.028
89 | CGCTTGGTTT | 0.9911 ± 0.0063
90 | CGCTTTAATT | 0.989 ± 0.032
91 | CGCTTTTTTG | 1.01 ± 0.032
92 | CGGAAAGAAA | 1.06 ± 0.058
93 | CGGAAAGGGT | 1.01 ± 0.027
94 | CGGAAATAT | 1.023 ± 0.0046
95 | CGGAAATTGG | 0.982 ± 0.012
96 | CGGAAATTTG | 1.02 ± 0.032
97 | CGGAACAGTT | 1.02 ± 0.024
98 | CGGAAGAATT | 0.99422 ± 0.00026
99 | CGGAAGATAG | 1.027 ± 0.0066
100 | CGGAAGCTTT | 1.04 ± 0.021

Row | Sequence | switch fluorescence ratio
101 | CGGAAGGGTA | 0.989 ± 0.036
102 | CGGAAGTATG | 1.04 ± 0.025
103 | CGGAAGTTCG | 0.9774 ± 0.0048
104 | CGGAATTTGG | 1.02 ± 0.041
105 | CGGACCAACG | 1.09 ± 0.019
106 | CGGACGGAAG | 1.01 ± 0.0078
107 | CGGACGGTTG | 1.01 ± 0.042
108 | CGGACTGGGA | 1.007 ± 0.0052
109 | CGGAGACTTG | 0.973 ± 0.068
110 | CGGAGAGGCA | 0.974 ± 0.032
111 | CGGAGATTAC | 2.25 ± 0.035
112 | CGGAGCAGGA | 1.48 ± 0.17
113 | CGGAGCAGGT | 2.09 ± 0.42
114 | CGGAGCCAGG | 1.43 ± 0.02
115 | CGGAGGGAGT | 1.78 ± 1.1
116 | CGGAGGGGTC | 1.02 ± 0.02
117 | CGGAGGGGTG | 1.02 ± 0.022
118 | CGGAGGTGTA | 1.4 ± 0.67
119 | CGGAGTCTGT | 1.1 ± 0.048
120 | CGGAGTTATG | 1.09 ± 0.04
121 | CGGAGTTGGG | 0.9863 ± 0.0044
122 | CGGATAATTT | 1.01 ± 0.047
123 | CGGATAGAAT | 0.984 ± 0.029
124 | CGGATAGAGG | 0.964 ± 0.012
125 | CGGATATGCG | 1.06 ± 0.085

Row | Sequence | switch fluorescence ratio
126 | CGGATCATCA | 1 ± 0.021
127 | CGGATCGTCG | 0.984 ± 0.038
128 | CGGATGAGGT | 0.987 ± 0.052
129 | CGGATGGAGT | 0.99128 ± 1.1e-05
130 | CGGATGGGAA | 0.995 ± 0.024
131 | CGGATGTGTA | 1.002 ± 0.01
132 | CGGATGTTAC | 1.171 ± 0.0093
133 | CGGATTAGTG | 0.964 ± 0.018
134 | CGGATTATTT | 0.984 ± 0.037
135 | CGGATTTGAC | 1.015 ± 0.0028
136 | CGGCAAGAGT | 1.479 ± 0.0019
137 | CGGCAATGTT | 1.73 ± 0.14
138 | CGGCAGAAAT | 0.967 ± 0.022
139 | CGGCAGGATG | 1.01 ± 0.024
140 | CGGCAGTAAT | 1.471 ± 0.003
141 | CGGCATCGAA | 0.985 ± 0.036
142 | CGGCATGTCT | 0.997 ± 0.076
143 | CGGCCAATAA | 3.19 ± 0.12
144 | CGGCGAACTC | 1.11 ± 0.033
145 | CGGCGAAGTT | 0.9883 ± 0.0046
146 | CGGCGGCACG | 0.998 ± 0.086
147 | CGGCGGGGGC | 0.998 ± 0.022
148 | CGGCGGGGGG | 1.08 ± 0.22
149 | CGGCGTACTA | 1.06 ± 0.014
150 | CGGCGTCCGT | 1.01 ± 0.037

Row | Sequence | switch fluorescence ratio
151 | CGGCTACATT | 0.9995 ± 0.0034
152 | CGGCTAGACG | 0.9994 ± 0.0057
153 | CGGCTTAGAT | 0.984 ± 0.028
154 | CGGCTTATGT | 0.9807 ± 0.0029
155 | CGGCTTGCGG | 1.03 ± 0.015
156 | CGGCTTTTTT | 0.959 ± 0.012
157 | CGGGAACCTT | 1.283 ± 0.01
158 | CGGGAACTCG | 1.01 ± 0.04
159 | CGGGAACTGT | 0.964 ± 0.07
160 | CGGGAAGGGG | 1.02 ± 0.03
161 | CGGGAAGTGG | 0.996 ± 0.03
162 | CGGGAAGTTT | 0.999 ± 0.032
163 | CGGGAATTGG | 0.961 ± 0.067
164 | CGGGACGTTT | 1.01 ± 0.013
165 | CGGGAGAACT | 0.987 ± 0.026
166 | CGGGAGCGGA | 0.995 ± 0.018
167 | CGGGAGCGTC | 1.02 ± 0.01
168 | CGGGAGCTTT | 1.07 ± 0.012
169 | CGGGAGGGTC | 1.06 ± 0.012
170 | CGGGAGGTTT | 0.9854 ± 0.0083
171 | CGGGATAATG | 0.994 ± 0.021
172 | CGGGATTAGC | 0.983 ± 0.022
173 | CGGGATTATC | 1.01 ± 0.021
174 | CGGGATTGAG | 0.979 ± 0.0058
175 | CGGGATTGGG | 0.96 ± 0.061

Row | Sequence | switch fluorescence ratio
176 | CGGGCAGGTA | 1.044 ± 0.0039
177 | CGGGCAGTTT | 1.03 ± 0.041
178 | CGGGCCCTGA | 0.977 ± 0.013
179 | CGGGCGCGTT | 0.984 ± 0.054
180 | CGGGCTTCTA | 1.04 ± 0.053
181 | CGGGGAAAGA | 0.978 ± 0.03
182 | CGGGGAACTT | 1.01 ± 0.019
183 | CGGGGAATAT | 0.993 ± 0.017
184 | CGGGGACGGT | 0.9631 ± 0.0064
185 | CGGGGAGGAA | 1.01 ± 0.072
186 | CGGGGAGGGA | 1.03 ± 0.019
187 | CGGGGATAAG | 0.981 ± 0.011
188 | CGGGGATAGG | 1.041 ± 0.0075
189 | CGGGGATATG | 0.9607 ± 0.0029
190 | CGGGGATTTT | 1.01 ± 0.051
191 | CGGGGCAAAA | 1.04 ± 0.027
192 | CGGGGCATGG | 1 ± 0.039
193 | CGGGGCCATG | 1.02 ± 0.068
194 | CGGGGCCTGG | 0.959 ± 0.021
195 | CGGGGCGCTA | 1.21 ± 0.29
196 | CGGGGCGGCG | 0.986 ± 0.002
197 | CGGGGCTATT | 0.999 ± 0.03
198 | CGGGGCTGGC | 1.2 ± 0.13
199 | CGGGGGACGC | 0.993 ± 0.06
200 | CGGGGGAGTG | 0.975 ± 0.025
